Experimental data reported in the domain aggregation screens of Martell et al. (2025).

Experiment: soluble fraction after stress (log2 fold change); higher = more stays soluble; pooled small domains, quantitative proteomics
Conditions: stress: pH 4
Outline: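 High-throughput quantitative proteomics was run on pooled custom libraries of small protein domains following pH 4 stress. Fold changes are on a log2 scale; higher values mean more of a domain remained soluble. The fold change in soluble amount is taken as a measure of aggregation propensity.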

| Sequence | soluble fraction (log2) |
| --- | --- |
| HMFNRAVSDNEALQVREHFDRDATVMSLAKKYGVSTVTIQRILLGKTYRNVGGPLFDKATLKKRMGN | 0.13 |
| HMTTRQREALLDYLSRHPDQPLTVREIAAGVEPDGVSLSAVYRNLAELEAAGLIRRESRPGSREAVVQYV | -0.192 |
| HMNSKMTYSDLIGNIEQGNVSSVELASDGKSATVTLTDNSQKQVNIPSLDSFVTYVQDHIKAGTLSVEE | 0.109 |
| HMIDSEEVMETIQDLGYSPVFDVKEKFYKIKEEQIGKITLEVHIILRYGMVDLVWIVRENGELLLG | -0.454 |
| HMHTTIIVASRDIAAGSVLTSHDLSSVAWVGGAVPKGSYTAADLAVGKTAFTAFQQGEPILESRLAS | 0.317 |
| HMITNMIIIMKPNASEEAIEKVKHLIESKGLQAHLSKGDEVTIVGVVGDKTRLHDSNIEISEGVDKIVNVT | -0.0219 |
| HMDEARLAVASNLIRLRTDAGMTQAELGEKLNYSDKTISKWERAEAIPDAFVLKQIGELFHVSVDFLLRTH | 0.1 |
| HMPEAITLRDLKTYSKQAASGYLDDHQLVLVEKEAHSEDVPEGQVIKQKPGAGASVKPGDKVEVTFSLGPE | 0.22 |
| HMQEAGKWLKKLRTERKITLEQLSKKTGLSVGFLSQFERGLTSIAIDTLEKIAAVFNVTIDYFISP | 0.22 |
| HMIRALVPGQTLHGEIVGRNGGEVQVRLAEDMILNARVDQNIYLELGKDLTFEVKNNGATLTLSPL | -0.552 |
| HMAENPAYTKGVVNRLYKIRATPYYSYSYNVDQKTYEGRGKQYGEYENLHIGDTITVYYQRSNPSNSEA | -0.112 |
| HMKEKDAYTSEILDTLKNAKLLVVEGTVYPLLTRLKNDGLLNYRWEESTSGPPRKYYGLTDEG | -0.449 |
| HMRSNQKVSQIAISQVLPGMVTAKNVYSRNDQLILNRETTLDSTKIAKIMFYAIESIYVYEPE | -0.6 |
| HMFKYLLDTNIVIYVIKKRPIEVMGVFNQNANRMAISAITFSELQHGAEKSVRVQENLNAIEEFTTLIDI | -0.537 |
| HMTSVMAWRLITPIPQHGIIRSSQVQLQKHAPNSLKFLDVDSSPVGKQVKHGIAAGHWLSKDDFTE | ≥ 0.43 |
| HMDDYRSLRGQEKAAIFLMSLSQEQAAKIFANLDDEEIKEISQAMSSLGTVGSEIIERLFVEFAEQVSS | -1.08 |
| HMSNSWSYSEFMKAVESGQVESVTISGQSIKGTSRGGQAFESVLPAFDDKLMDTLLVNDVEVIGEKP | -0.149 |
| HMENIEVDFGVGDTVSVIGGAWKDTVGVVQAMNPNKQSLTINVELFGRETPVEISFTDVQKM | -0.962 |
| HMKKTIIVHVVGEVNTPGIVELNEGARIIDAINGAGGKTEEADMSKINLAYVIEDGSQIYVPSIYE | -1.08 |
| HMADTIEVVVQVNGKVRAKISTSPEVFADSTKLQELALADANVQKFIAGQTIRKVIIPKGTKLLNIV | -0.55 |
| HMRSISVEMDGKEYLIPTVSENGKVLSDDDAVKQFKKTGKHLDVFDSPEDATAYARQLHEDQESFYA | 0.22 |
| HMSINTLEVHSLKALENLAESPLLISFSYENEEYNYRLASSDVSLLKKISSNYSDDSDIKGLRFIS | -0.316 |
| HMSQNTHTIPSREDILGIFRSVNAPLDPQSLGKTLQVHADSMDVLVRRLKAMERDGQLKSDASGVFSLAD | 0.314 |
| HMEDKQRRMGELVALLNRAAYAYYTKDEPIMADVQYDRLYDELLSLEKETGVQMADSPTHRV | -0.871 |
| HMDLRIKEIMSERNVTSAWLAEKVGISKVAVSNIVTGKSSPSLDNLLKIADALNVSITTLIG | 0.305 |

| Sequence | soluble fraction (log2) |
| --- | --- |
| HMLSFSEAERAVLSLLNRRPDLSAKALASELAVSARTVERYLQSLQQKGKLLRVGAKKGGYWQV | 0.115 |
| HMPIGENIKRLRIMHGLSQKELAQIAGVSDKAVSTWENGTKEPRMGAVQKITGYFGLKKSNLIEDNGL | 0.0537 |
| HMEQAMIVILKENPDRRQLEFLTGWLQKQQIGIHISEGAHQTVLGLVGDATRLDIDMLKQMEIVEDVKRVQ | -0.953 |
| HMTATWLTYYRIKAGLTQKRLAELAGLNIRQVQKIENGETLAGNTTAKNLLALADALGIDPHKL | -0.381 |
| HMQRLSRREIEVLHWIAEGKSDWQIGQILSISAKTVNYHTENLKRKFGVATRMQAVVSAIKQGAFVPGE | -1.31 |
| HMETENLSPREREILEYIVKGYSYKMIAADLNIATETVRSHIKKIYKKLQVNSATEAVYKYSN | -0.424 |
| HMQAATQVNIVGLFSNKAVVIINGGKPKTLSVGQTSEGVKLLAADSQTATLQIEGKTQQLGMGQAASVGG | 0.107 |
| HMWQVVEVDYGTFMSMTEDGQVGRVEIQEQENLILFTDQEETTVYKTAMVDDPDLTARLHDAGIPFYGQE | -2.29 |
| HMSGVSESIEKKIQYLLLEKPLPLHDLIEAIEIGKEEDRLKVLRSLMDSDTVKIEDDLYHWNA | -0.393 |
| HMRPILTLEEAKAKALAHAGLKADQVTFTEAKLDWDDGKQVYDIEFYTADFKEYDYEIDAKTGEVLEVDY | 0.0375 |
| HMEEDPIIIAQRFLNIFRQLHIFSEEKKESFNKMLLEQPAEIRGALRSLPGGGLLQDYIDDLESKA | -0.711 |
| HMNISALKGKIGEVYLKIPAHNAGKGKVLISLKGTHHELYAITRSGEDISSGEFVKVIEIEDEILVVEK | -0.537 |
| HMDGEITLYKVVGYIKASDFDDKKNGFVIADDYITKRQAEDTMYEWKRKKTYPYLEIKEYKGKDPYK | -0.0464 |
| HMISIKEAVFPFSRFPGVDTLLGPEMKSTGEVMGLADNFGHAYAKSQIASGSKLPESGTLFVSVKNSD | 0.0851 |
| HMPSTVSVPDVAGSSLSEAKTTIKSSGLKVGTVHKVSSDTVESGYVIKTSPTAGSSKKEGSSIDIYVSKG | -0.026 |
| HMSPVPRIEIELTSSKEDGSWTWRAVGAREPRGSLDGALLAKPAAVGDVLRVETDQFLDGMTVTAILPPRD | -0.6 |
| HMFDGVAAGKPAILDALEDAGGFLPLNSKSSVEEIQASFSFSKRVFKQLIGMLYKERKIVITDDGIRLAD | -0.654 |
| HMTVRLSVSADGKFFWNESQVSEEELFPRLQAEAAKEPQPDLHIRGDKNVRYEFVAQAMAAAQRAGVRKI | -0.423 |
| HMAMSAGEVVERIREHVGHPATIKELMRVLAIPNEERYRFRRRIKQLVEAGELIRIRGNRYGLADR | ≥ 0.43 |
| HMNDFVTVPDLQGIFYSEAIKKIDKMGLKEGSIQFVNQDKFLPNTVLNQNPKEGTKVSQDSPINLIIS | -0.594 |
| HMSQQMSYSDFVKAVSARQIREAQIQGDKIYATDSTGNRLTIIRLDNDQRLVDDMINNDVNIIGLEE | -0.534 |
| HMTISDTAYQAFLEQLGVGMVVEHKRFGEGVITGMPKGKIRITFEEGTKSFQARALAESGMLK | -0.824 |
| HMSYANVEWRDFLNSLDEKYRIVVILYYVQGFKTREIAEILQINQSTVRGRLAKAREKLEQQYN | -1.13 |
| HMNIIATHTVPAIEQKIRLQEYAISIFPQINSRSALKKAIAKKLVLLDGERASTADWIQPGQKIELLEDK | -0.274 |
| HMREVSPEDLALMRRIDAWHLEHPFAGARLLRDLLRPEGFQAGRRHIGTLMARMGIEALYRK | -0.255 |

| Sequence | soluble fraction (log2) |
| --- | --- |
| HMPSEDELAERLRGAIRQGDILNEGRMPPERALAEHFGVSRARLRLALGLLQEDGTIYRRHGQGTFAT | -0.0169 |
| HMDYKLDVNFPEMYLEQIPAEKRAALIQILEQDPRPSYQKDPVRIYGMSYAGMEIHFRVDKETLYVTEVER | -0.0453 |
| HMDIADKLTKREFEIFIAIAMNKSRFDIANELGLSAKTVSNGLTVIKRKLNAVPSQFSAIAAKHGYIG | -0.408 |
| HMKPDIETQLKKYRYKVSVSKKIKPYMVFSDKTLSELLTKSPTNLKELEDINGFGPVKVQEYGAAILEILK | 0.148 |
| HMSVSVNAPMPGNILDVRAKTGESIQKGQVIVILEAMKMENEIMAPQDGKISSINTSKGSTVNSGDLLFTM | -0.693 |
| HMSAEKPVKSELFYKSMLNSFEQAVRFMIANGILEDFKSRIVAINNETNHQNWFNKQEFNAIIERF | -0.032 |
| HMHSDWITWWYLKDKRFDDDYSLWDRQPVHPEYFEVVKEFKAPPESNPGGLDEVKRILRTYIPDAFAP | 0.162 |
| HMEFDYIVKVPDVRNKKIEDAGKILIDLGLKYTTESDYITQDLKVIDQFPLPGTEVSKGSIIDIYLEEDFK | -0.446 |
| HMPTQTEELRRRIVADVNAGEPGAKLGSERELAERYGTSRSSLRQVLAALQEAGLIDRVIGRSGGIFISH | 0.33 |
| HMKIDNIIIYITGGVKKEGVYELPDGSRISDAIEQAEGLKANADTSSINLAYKLEDGMKIKIPLQGEN | -0.664 |
| HMSTEEYDRGYEQGLEEAAKADDAWVANLIKIYSQNTPESMPETMKGRLDAFLYEQQRRAQSVPEM | -1.09 |
| HMIFNENLKSAREKKGLSQKEVAEAIGVAKSTYSLYESGNREPNVQTIKRIADVLNVSADVLLGL | 0.332 |
| HMDDEELDALKGIPANEYTQEQIKQISEVFHTLQKNEVKDWLNSLQLRNIELPFELRNEVFSQ | -0.43 |
| HMTVAEVEDRMEASRVRQALDAVGEPHRTTIALAYFTGLTHTEIAQRMGVPLGTVKSRIRDGMAKMRTHLG | -0.172 |
| HMGIAWGMLREQVAASDVSYRSEVLDILDRTPVWIYDAEGKIVDGRKKRLMDLQGGEPYRHMLEHFFPDLR | -1.96 |
| HMNNYNDSVQKIINYIADNLNENLSVRKLADKMPMSVSHFNRVFQKYTGDSPYAYVMAMRIKKAKYL | -0.565 |
| HMDAKIKDYADAYAKMDPQQAASLFNNMTTGSLDLVAKILENIPANKRAAILEKMDVNAAAQVTEKMR | 0.188 |
| HMRGINDLSLVDPQGRIRKDGEQYVVAFGRHKGKEISQIISQDPSYLNWLLSPKGIEDDATRELIRTQYS | -0.0946 |
| HMSDEEAISKLPGVGPAILEKLKEAGYNDIMTIAVDSPKNLAELAEIGEPTAAKIIAAAKKAAD | -0.109 |
| HMPKLSNNHMAVWQAIRSRTAKGEPSTRAVIRDDLKAAGMDTSKHFSRWLTKLIDLGMVVKDGENLSIR | 0.219 |
| HMDSADADLLRRIEDLLSSRRSVIREARLADMLGVPRDQVARALDLLQERGVIGLTTDSGMKRIAFRRN | 0.111 |
| HMQMPLTMATMGEVNKIVKVGGNEETRRFLANLGFVAGAEVVVLSKIGGNVIVNVKDSRVAVNEDMARHIM | -0.692 |
| HMTESLVITVDPALHGLRLDRGLADALPDRSRSEVQRWIKEGRVQLHGAPAKPSLKLAAGDIVTIALPEE | 0.236 |
| HMRDSWNEATKEKRYTEAYDALNSALKKTPATPHALSDALWIARELGRTNEEVQRLEWRLYALLTWIS | -0.0517 |
| HMITTWAGKATTDVYGRVDANPKADAVLVIKTGWTVQVVGSKTAPDGGTWYKLIYNGKTMYANSKFIVK | 0.00106 |
